B1: Compound 3 (peptide)
peptide: {Nicotinoyl(6-F)}-[dY][dE]C[Hyp][Tyr(3-Cl)]GLCHI[dL]-NH2
modifications: disulfide 3-8
SMILES: CC[C@H](C)[C@H](NC(=O)[C@H](Cc1c[nH]cn1)NC(=O)[C@@H]1CSSC[C@H](NC(=O)[C@@H](CCC(=O)O)NC(=O)[C@@H](Cc2ccc(O)cc2)NC(=O)c2ccc(F)nc2)C(=O)N2C[C@H](O)C[C@H]2C(=O)N[C@@H](Cc2ccc(O)c(Cl)c2)C(=O)NCC(=O)N[C@@H](CC(C)C)C(=O)N1)C(=O)N[C@H](CC(C)C)C(N)=O
B2: Compound 2 (peptide)
peptide: {Nicotinoyl(6-F)}-[dY][dE]C[Hyp][Tyr(3-Cl)]GLCHIQ-NH2
modifications: disulfide 3-8
SMILES: CC[C@H](C)[C@H](NC(=O)[C@H](Cc1c[nH]cn1)NC(=O)[C@@H]1CSSC[C@H](NC(=O)[C@@H](CCC(=O)O)NC(=O)[C@@H](Cc2ccc(O)cc2)NC(=O)c2ccc(F)nc2)C(=O)N2C[C@H](O)C[C@H]2C(=O)N[C@@H](Cc2ccc(O)c(Cl)c2)C(=O)NCC(=O)N[C@@H](CC(C)C)C(=O)N1)C(=O)N[C@@H](CCC(N)=O)C(N)=O
B3: Compound 7 (peptide)
peptide: {Nicotinoyl(6-F)}-Y[dE]C[Hyp][Tyr(3-Cl)]GLCYIQ-NH2
modifications: disulfide 3-8
SMILES: CC[C@H](C)[C@H](NC(=O)[C@H](Cc1ccc(O)cc1)NC(=O)[C@@H]1CSSC[C@H](NC(=O)[C@@H](CCC(=O)O)NC(=O)[C@H](Cc2ccc(O)cc2)NC(=O)c2ccc(F)nc2)C(=O)N2C[C@H](O)C[C@H]2C(=O)N[C@@H](Cc2ccc(O)c(Cl)c2)C(=O)NCC(=O)N[C@@H](CC(C)C)C(=O)N1)C(=O)N[C@@H](CCC(N)=O)C(N)=O
B4: Compound 4 (peptide)
peptide: {Nicotinoyl(6-F)}-Y[dE]C[Hyp][Tyr(3-Cl)]GLCHIQ-NH2
modifications: disulfide 3-8
SMILES: CC[C@H](C)[C@H](NC(=O)[C@H](Cc1c[nH]cn1)NC(=O)[C@@H]1CSSC[C@H](NC(=O)[C@@H](CCC(=O)O)NC(=O)[C@H](Cc2ccc(O)cc2)NC(=O)c2ccc(F)nc2)C(=O)N2C[C@H](O)C[C@H]2C(=O)N[C@@H](Cc2ccc(O)c(Cl)c2)C(=O)NCC(=O)N[C@@H](CC(C)C)C(=O)N1)C(=O)N[C@@H](CCC(N)=O)C(N)=O
B5: Compound 6 (peptide)
peptide: {Nicotinoyl(6-F)}-[dY][dE]C[Hyp][Tyr(3-Cl)]GLCYIQ-NH2
modifications: disulfide 3-8
SMILES: CC[C@H](C)[C@H](NC(=O)[C@H](Cc1ccc(O)cc1)NC(=O)[C@@H]1CSSC[C@H](NC(=O)[C@@H](CCC(=O)O)NC(=O)[C@@H](Cc2ccc(O)cc2)NC(=O)c2ccc(F)nc2)C(=O)N2C[C@H](O)C[C@H]2C(=O)N[C@@H](Cc2ccc(O)c(Cl)c2)C(=O)NCC(=O)N[C@@H](CC(C)C)C(=O)N1)C(=O)N[C@@H](CCC(N)=O)C(N)=O
B6: Compound 5 (peptide)
peptide: {Nicotinoyl(6-F)}-Y[dE]C[Hyp][Tyr(3-Cl)]GLCHI[dQ]-NH2
modifications: disulfide 3-8
SMILES: CC[C@H](C)[C@H](NC(=O)[C@H](Cc1c[nH]cn1)NC(=O)[C@@H]1CSSC[C@H](NC(=O)[C@@H](CCC(=O)O)NC(=O)[C@H](Cc2ccc(O)cc2)NC(=O)c2ccc(F)nc2)C(=O)N2C[C@H](O)C[C@H]2C(=O)N[C@@H](Cc2ccc(O)c(Cl)c2)C(=O)NCC(=O)N[C@@H](CC(C)C)C(=O)N1)C(=O)N[C@H](CCC(N)=O)C(N)=O
B7: Compound 8 (peptide)
peptide: {Nicotinoyl(6-F)}-Y[dE]C[Hyp][Tyr(3-Cl)]GLCHI[dL]-NH2
modifications: disulfide 3-8
SMILES: CC[C@H](C)[C@H](NC(=O)[C@H](Cc1c[nH]cn1)NC(=O)[C@@H]1CSSC[C@H](NC(=O)[C@@H](CCC(=O)O)NC(=O)[C@H](Cc2ccc(O)cc2)NC(=O)c2ccc(F)nc2)C(=O)N2C[C@H](O)C[C@H]2C(=O)N[C@@H](Cc2ccc(O)c(Cl)c2)C(=O)NCC(=O)N[C@@H](CC(C)C)C(=O)N1)C(=O)N[C@H](CC(C)C)C(N)=O
B8: Compound 9 (peptide)
peptide: {Nicotinoyl(6-F)}-[dY][dE]C[Hyp][Tyr(3-Cl)]GLCYI[dL]-NH2
modifications: disulfide 3-8
SMILES: CC[C@H](C)[C@H](NC(=O)[C@H](Cc1ccc(O)cc1)NC(=O)[C@@H]1CSSC[C@H](NC(=O)[C@@H](CCC(=O)O)NC(=O)[C@@H](Cc2ccc(O)cc2)NC(=O)c2ccc(F)nc2)C(=O)N2C[C@H](O)C[C@H]2C(=O)N[C@@H](Cc2ccc(O)c(Cl)c2)C(=O)NCC(=O)N[C@@H](CC(C)C)C(=O)N1)C(=O)N[C@H](CC(C)C)C(N)=O
B9: Compound 14 (peptide)
peptide: {Nicotinoyl(6-F)}-Y[dE]C[Hyp][Tyr(3-Cl)][dD]LCYIQ-NH2
modifications: disulfide 3-8
SMILES: CC[C@H](C)[C@H](NC(=O)[C@H](Cc1ccc(O)cc1)NC(=O)[C@@H]1CSSC[C@H](NC(=O)[C@@H](CCC(=O)O)NC(=O)[C@H](Cc2ccc(O)cc2)NC(=O)c2ccc(F)nc2)C(=O)N2C[C@H](O)C[C@H]2C(=O)N[C@@H](Cc2ccc(O)c(Cl)c2)C(=O)N[C@H](CC(=O)O)C(=O)N[C@@H](CC(C)C)C(=O)N1)C(=O)N[C@@H](CCC(N)=O)C(N)=O
B10: Compound 13 (peptide)
peptide: {Nicotinoyl(6-F)}-Y[dE]C[Hyp][Tyr(3-Cl)]GLCYI[dQ]-NH2
modifications: disulfide 3-8
SMILES: CC[C@H](C)[C@H](NC(=O)[C@H](Cc1ccc(O)cc1)NC(=O)[C@@H]1CSSC[C@H](NC(=O)[C@@H](CCC(=O)O)NC(=O)[C@H](Cc2ccc(O)cc2)NC(=O)c2ccc(F)nc2)C(=O)N2C[C@H](O)C[C@H]2C(=O)N[C@@H](Cc2ccc(O)c(Cl)c2)C(=O)NCC(=O)N[C@@H](CC(C)C)C(=O)N1)C(=O)N[C@H](CCC(N)=O)C(N)=O
B11: Compound 12 (peptide)
peptide: {Nicotinoyl(6-F)}-Y[dE]C[Hyp][Tyr(3-Cl)]DLCYIQ-NH2
modifications: disulfide 3-8
SMILES: CC[C@H](C)[C@H](NC(=O)[C@H](Cc1ccc(O)cc1)NC(=O)[C@@H]1CSSC[C@H](NC(=O)[C@@H](CCC(=O)O)NC(=O)[C@H](Cc2ccc(O)cc2)NC(=O)c2ccc(F)nc2)C(=O)N2C[C@H](O)C[C@H]2C(=O)N[C@@H](Cc2ccc(O)c(Cl)c2)C(=O)N[C@@H](CC(=O)O)C(=O)N[C@@H](CC(C)C)C(=O)N1)C(=O)N[C@@H](CCC(N)=O)C(N)=O

Bridges are numbered along the chain shown (N, C = ends). [ ]: non-standard residue; d: D form. The star is where a group is joined. Tyr(3-Cl) = N[C@@H](Cc1ccc(O)c(Cl)c1)C(=O)O; Nicotinoyl(6-F) = O=C(c1ccc(F)nc1)*; Hyp = O=C(O)[C@@H]1C[C@@H](O)CN1

One experiment deals with soluble fibrin fragment DD(E). Description: fluorescence polarization DD(E) assay.
One may read the Kd as the free concentration of one partner at which half of the binding sites on the other are occupied at equilibrium, for simple one-to-one binding. A higher Kd goes with a looser complex. For B1, the Kd is less than 600 nM.
Same read-out and setting: as for B2, the figure is less than 600 nM; as for B3, less than 600 nM.
Same read-out and setting: as for B4, the figure is less than 600 nM.
Still for that read-out and setting: as for B5, the figure is less than 600 nM; as for B6, less than 600 nM.

For another experiment, the target named is soluble fibrin fragment DD(E). The experiment is described as follows: fluorescence polarization, displacement of the TRITC peptide from DD(E). Background: Polarisation of emitted light reports the rotation of a fluorescent probe.
As usually defined, the Ki is the dissociation constant of the complex between target and ligand, obtained from inhibition or displacement. A lower Ki goes with higher affinity. Consider B7, for which the Ki amounted to 640 nM.
On the same count and under the same terms, under B8 stands 730 nM.
Same read-out and setting: under B9 stands 2760 nM.
For B1, the Ki is 140 nM.
The same measure, in the same setting: under B2 stands 70 nM; under B3, 580 nM; under B4, 180 nM.
The same measure, in the same setting: under B5 stands 340 nM.
Take B6: the inhibition constant Ki stood at 230 nM.
Same read-out and setting: under B10 stands 1250 nM; under B11, 1200 nM.

The record behind these values is US20240115744A1, “FIBRIN-BINDING COMPOUNDS FOR IMAGING AND TREATMENT” (Collagen Medical, LLC, priority 2019, published 2024).
